Tests used:
[1] = biological target: dynamic microtubules growing from surface-immobilized GMPCPP seeds (polymer of alpha/beta-tubulin); assay: TIRF microscopy; GFP-labelled motors (20-30 nM, or 50 pM for single molecules) on microtubules growing from immobilized GMPCPP seeds in 10 or 20 μM unlabelled tubulin, 1 mM ATP
[2] = biological target: T1, taxol-stabilized microtubules (polymer of alpha/beta-tubulin), immobilized; assay: single-molecule TIRF microscopy; GFP-labelled motor (25 pM) in 1 mM ATP on immobilized taxol-stabilized microtubules; pause lifetimes at plus ends, exponential fit; BRB80 pH 6.8
[3] = biological target: T1, taxol-stabilized microtubules (polymer …); assay: single-molecule TIRF microscopy; spiking experiment, crowded conditions: pM GFP-labelled motor mixed with 15-25 nM unlabelled motor; binding durations at plus ends of taxol-stabilized microtubules

T1 sequence (P68363 whole entry, chain 1 of 2): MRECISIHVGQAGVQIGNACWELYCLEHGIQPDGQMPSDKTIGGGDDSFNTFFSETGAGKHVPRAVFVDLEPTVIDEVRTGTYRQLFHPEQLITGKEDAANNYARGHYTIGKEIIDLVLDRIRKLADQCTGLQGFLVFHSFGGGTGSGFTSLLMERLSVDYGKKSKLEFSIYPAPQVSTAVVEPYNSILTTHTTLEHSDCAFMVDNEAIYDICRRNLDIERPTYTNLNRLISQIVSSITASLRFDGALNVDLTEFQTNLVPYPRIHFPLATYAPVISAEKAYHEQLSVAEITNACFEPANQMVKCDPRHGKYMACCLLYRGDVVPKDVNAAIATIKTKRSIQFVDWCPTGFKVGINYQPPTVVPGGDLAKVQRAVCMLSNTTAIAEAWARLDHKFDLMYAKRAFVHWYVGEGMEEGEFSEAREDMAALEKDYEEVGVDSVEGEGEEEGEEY
T1 sequence (A8K068 whole entry, chain 2 of 2, further chain): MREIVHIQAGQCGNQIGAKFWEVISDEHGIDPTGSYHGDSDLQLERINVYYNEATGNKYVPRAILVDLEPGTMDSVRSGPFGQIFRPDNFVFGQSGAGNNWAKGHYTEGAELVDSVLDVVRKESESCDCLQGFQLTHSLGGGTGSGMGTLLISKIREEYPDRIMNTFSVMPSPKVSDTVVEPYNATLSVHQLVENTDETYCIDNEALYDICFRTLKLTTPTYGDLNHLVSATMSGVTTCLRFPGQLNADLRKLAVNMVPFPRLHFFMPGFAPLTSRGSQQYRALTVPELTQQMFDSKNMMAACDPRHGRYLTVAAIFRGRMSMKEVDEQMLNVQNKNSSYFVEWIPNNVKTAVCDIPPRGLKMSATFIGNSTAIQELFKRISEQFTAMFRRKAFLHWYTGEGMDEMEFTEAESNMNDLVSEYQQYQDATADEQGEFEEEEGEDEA
Sequence of dynamic microtubules growing from surface-immobilized GMPCPP seeds (polymer of alpha/beta-tubulin) (chain, as listed by the source, chain 1 of 2): as the sequence (P68363 whole entry, chain 1 of 2) above
Sequence of dynamic microtubules growing from surface-immobilized GMPCPP seeds (polymer of alpha/beta-tubulin) (chain, as listed by the source, chain 2 of 2): as the sequence (A8K068 whole entry, chain 2 of 2, further chain) above

B1: Kin5_14GFP (dimeric kinesin-5 as Kin5_18 but with the neck linker shortened to 14 residues, GFP-tagged) (protein)
chain: MSSQNSFMASKKEDKGKNIQVVVRCRPFNQLERKASSHSVLECDSQRKEVYVRTGEVNDKLGKKTYTFDMVFGPAAKQIEVYRSVVCPILDEVIMGYNCTIFAYGQTGTGKTFTMEGERSSDEEFTWEQDPLAGIIPRTLHQIFEKLSENGTEFSVKVSLLEIYNEELFDLLSPSPDVGERLQMFDDPRNKRGVIIKGLEEISVHNKDEVYHILERGAARRKTASTLMNAYSSRSHSVFSVTIHMKETTVDGEELVKIGKLNLVDLAGSENIGRSGAVDKRAREAGNINQSLLTLGRVITALVERTPHIPYRESKLTRILQDSLGGRTKTSIIATVSPASINLEETVSTLDYANRAKSIMNKPEVNQKLTAEEWKRRYEKEKEKNARLKGKVEKLEIELARWRAGETVKAEEQINMEDLMEASTPNLEVEAAQTAAAEAALAAQRTALANMSASVAVNEQARLATECERLYQQLDDKDEEINQQSQYAEQLKEQVMEQEELIANARREYETLQSEMARIQQENESAKEEVKEVLQALEELAVNYDQKSQEIDNKNKDIDALNEELQQKQSVFNAASTELQQLKDM
modifications: not checked
mean residence time at dynamic plus ends [1]: 7.04 s | mean pause duration at plus ends [2]: 7.2 s | end duration at plus ends under crowded conditions [3]: 2.61 s
